Numbered stars: 1 amine (or outer) side, 2 acyl side, 3 side chain; on linkers, the order of the positions; unused ones are H or OH. Bridge positions count the residues as written; N and C are the ends. Side chains are listed from the residue outwards. Ends that are not written are not given here. * marks the point of attachment. C20 diacid = O=C(O)CCCCCCCCCCCCCCCCCCC(=O)*; γGlu = O=C(O)[C@H](CCC(=O)[*:2])N[*:1]
T1: rat calcitonin receptor (rat, UniProt P32214 25-516)
T1 construct: whole, on cells; Membranes of transiently transfected BHK tk'ts 13 cells (Assay VIII); also called rCTR
T1 sequence (looked up): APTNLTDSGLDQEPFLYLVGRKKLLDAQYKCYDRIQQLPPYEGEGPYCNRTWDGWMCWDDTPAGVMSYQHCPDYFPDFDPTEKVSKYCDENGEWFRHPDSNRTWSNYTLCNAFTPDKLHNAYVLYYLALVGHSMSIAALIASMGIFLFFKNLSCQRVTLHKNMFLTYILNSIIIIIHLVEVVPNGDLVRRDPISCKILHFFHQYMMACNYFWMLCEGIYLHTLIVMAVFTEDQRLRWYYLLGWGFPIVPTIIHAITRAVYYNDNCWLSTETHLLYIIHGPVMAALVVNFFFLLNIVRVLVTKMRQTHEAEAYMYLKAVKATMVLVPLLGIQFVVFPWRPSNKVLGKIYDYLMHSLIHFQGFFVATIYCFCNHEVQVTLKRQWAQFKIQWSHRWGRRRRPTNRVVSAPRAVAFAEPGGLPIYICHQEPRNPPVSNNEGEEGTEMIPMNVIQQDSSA

T2: human calcitonin receptor (human, UniProt P30988 25-474)
T2 construct: whole, on cells; Membranes of a stably transfected BHK cell line (Assay VII); also called hCTR; hCT
T2 sequence (looked up): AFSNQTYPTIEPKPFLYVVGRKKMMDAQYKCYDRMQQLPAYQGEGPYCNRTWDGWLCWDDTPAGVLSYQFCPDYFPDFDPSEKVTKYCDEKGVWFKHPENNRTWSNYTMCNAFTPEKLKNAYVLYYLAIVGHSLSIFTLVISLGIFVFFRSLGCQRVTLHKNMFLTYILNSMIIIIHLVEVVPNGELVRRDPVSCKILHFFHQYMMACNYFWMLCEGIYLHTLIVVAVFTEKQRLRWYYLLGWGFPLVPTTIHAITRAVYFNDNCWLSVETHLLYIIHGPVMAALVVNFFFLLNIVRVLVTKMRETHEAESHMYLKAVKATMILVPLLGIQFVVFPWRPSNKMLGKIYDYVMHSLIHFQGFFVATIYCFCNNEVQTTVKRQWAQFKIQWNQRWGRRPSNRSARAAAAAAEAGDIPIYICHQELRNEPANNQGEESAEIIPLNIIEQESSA

T3: rat amylin receptor (rat calcitonin receptor + rat RAMP 3) (rat, UniProt P32214 25-516; Q9JJ73 23-147)
T3 construct: whole, on cells; Membranes of transiently transfected BHK tk'ts 13 cells (Assay VI); also called rAmylin-R; rat amylin 3(a) receptor
T3 sequence (looked up) 1: T1 sequence (looked up)
T3 sequence (looked up) 2: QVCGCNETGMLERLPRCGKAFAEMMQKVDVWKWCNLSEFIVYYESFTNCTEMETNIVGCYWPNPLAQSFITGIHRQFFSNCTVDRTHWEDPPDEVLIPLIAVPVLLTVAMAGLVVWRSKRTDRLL

B1: N^ε1-[(4S)-4-carboxy-4-[[(4S)-4-carboxy-4-(19-carboxynonadecanoylamino)butanoyl]amino]butanoyl]-[Arg17,Pro21,Pro27,Pro31,Pro34,Arg35]-h-amylin (peptide)
peptide: K([γGlu-γGlu-C20 diacid])CNTATCATQRLANFLRHSSPNFGAIPSSTPVGPRTY-NH2
modifications: disulfide 2-7; N-terminus assumed
SMILES: CC[C@H](C)[C@H](NC(=O)[C@H](C)NC(=O)CNC(=O)[C@H](Cc1ccccc1)NC(=O)[C@H](CC(N)=O)NC(=O)[C@@H]1CCCN1C(=O)[C@H](CO)NC(=O)[C@H](CO)NC(=O)[C@H](Cc1c[nH]cn1)NC(=O)[C@H](CCCNC(=N)N)NC(=O)[C@H](CC(C)C)NC(=O)[C@H](Cc1ccccc1)NC(=O)[C@H](CC(N)=O)NC(=O)[C@H](C)NC(=O)[C@H](CC(C)C)NC(=O)[C@H](CCCNC(=N)N)NC(=O)[C@H](CCC(N)=O)NC(=O)[C@@H](NC(=O)[C@H](C)NC(=O)[C@@H]1CSSC[C@H](NC(=O)[C@@H](N)CCCCNC(=O)CC[C@H](NC(=O)CC[C@H](NC(=O)CCCCCCCCCCCCCCCCCCC(=O)O)C(=O)O)C(=O)O)C(=O)N[C@@H](CC(N)=O)C(=O)N[C@@H]([C@@H](C)O)C(=O)N[C@@H](C)C(=O)N[C@@H]([C@@H](C)O)C(=O)N1)[C@@H](C)O)C(=O)N1CCC[C@H]1C(=O)N[C@@H](CO)C(=O)N[C@@H](CO)C(=O)N[C@H](C(=O)N1CCC[C@H]1C(=O)N[C@H](C(=O)NCC(=O)N1CCC[C@H]1C(=O)N[C@@H](CCCNC(=N)N)C(=O)N[C@H](C(=O)N[C@@H](Cc1ccc(O)cc1)C(N)=O)[C@@H](C)O)C(C)C)[C@@H](C)O
B2: N^ε1-[(4S)-4-carboxy-4-[[(4S)-4-carboxy-4-(19-carboxynonadecanoylamino)butanoyl]amino]butanoyl]-[Glu14,Arg17,Pro21,Pro27,Arg34]-h-amylin (peptide)
peptide: K([γGlu-γGlu-C20 diacid])CNTATCATQRLAEFLRHSSPNFGAIPSSTNVGRNTY-NH2
modifications: disulfide 2-7; N-terminus assumed
SMILES: CC[C@H](C)[C@H](NC(=O)[C@H](C)NC(=O)CNC(=O)[C@H](Cc1ccccc1)NC(=O)[C@H](CC(N)=O)NC(=O)[C@@H]1CCCN1C(=O)[C@H](CO)NC(=O)[C@H](CO)NC(=O)[C@H](Cc1c[nH]cn1)NC(=O)[C@H](CCCNC(=N)N)NC(=O)[C@H](CC(C)C)NC(=O)[C@H](Cc1ccccc1)NC(=O)[C@H](CCC(=O)O)NC(=O)[C@H](C)NC(=O)[C@H](CC(C)C)NC(=O)[C@H](CCCNC(=N)N)NC(=O)[C@H](CCC(N)=O)NC(=O)[C@@H](NC(=O)[C@H](C)NC(=O)[C@@H]1CSSC[C@H](NC(=O)[C@@H](N)CCCCNC(=O)CC[C@H](NC(=O)CC[C@H](NC(=O)CCCCCCCCCCCCCCCCCCC(=O)O)C(=O)O)C(=O)O)C(=O)N[C@@H](CC(N)=O)C(=O)N[C@@H]([C@@H](C)O)C(=O)N[C@@H](C)C(=O)N[C@@H]([C@@H](C)O)C(=O)N1)[C@@H](C)O)C(=O)N1CCC[C@H]1C(=O)N[C@@H](CO)C(=O)N[C@@H](CO)C(=O)N[C@H](C(=O)N[C@@H](CC(N)=O)C(=O)N[C@H](C(=O)NCC(=O)N[C@@H](CCCNC(=N)N)C(=O)N[C@@H](CC(N)=O)C(=O)N[C@H](C(=O)N[C@@H](Cc1ccc(O)cc1)C(N)=O)[C@@H](C)O)C(C)C)[C@@H](C)O
notes: also called compound 88
B3: N^ε1-[(4S)-4-carboxy-4-[[(4S)-4-carboxy-4-(19-carboxynonadecanoylamino)butanoyl]amino]butanoyl]-[Glu14,Arg17,Pro21,Pro27,Arg35]-h-amylin (peptide)
peptide: K([γGlu-γGlu-C20 diacid])CNTATCATQRLAEFLRHSSPNFGAIPSSTNVGSRTY-NH2
modifications: disulfide 2-7; N-terminus assumed
SMILES: CC[C@H](C)[C@H](NC(=O)[C@H](C)NC(=O)CNC(=O)[C@H](Cc1ccccc1)NC(=O)[C@H](CC(N)=O)NC(=O)[C@@H]1CCCN1C(=O)[C@H](CO)NC(=O)[C@H](CO)NC(=O)[C@H](Cc1c[nH]cn1)NC(=O)[C@H](CCCNC(=N)N)NC(=O)[C@H](CC(C)C)NC(=O)[C@H](Cc1ccccc1)NC(=O)[C@H](CCC(=O)O)NC(=O)[C@H](C)NC(=O)[C@H](CC(C)C)NC(=O)[C@H](CCCNC(=N)N)NC(=O)[C@H](CCC(N)=O)NC(=O)[C@@H](NC(=O)[C@H](C)NC(=O)[C@@H]1CSSC[C@H](NC(=O)[C@@H](N)CCCCNC(=O)CC[C@H](NC(=O)CC[C@H](NC(=O)CCCCCCCCCCCCCCCCCCC(=O)O)C(=O)O)C(=O)O)C(=O)N[C@@H](CC(N)=O)C(=O)N[C@@H]([C@@H](C)O)C(=O)N[C@@H](C)C(=O)N[C@@H]([C@@H](C)O)C(=O)N1)[C@@H](C)O)C(=O)N1CCC[C@H]1C(=O)N[C@@H](CO)C(=O)N[C@@H](CO)C(=O)N[C@H](C(=O)N[C@@H](CC(N)=O)C(=O)N[C@H](C(=O)NCC(=O)N[C@@H](CO)C(=O)N[C@@H](CCCNC(=N)N)C(=O)N[C@H](C(=O)N[C@@H](Cc1ccc(O)cc1)C(N)=O)[C@@H](C)O)C(C)C)[C@@H](C)O
notes: also called compound 89
B4: N^ε1-[(4S)-4-carboxy-4-[[(4S)-4-carboxy-4-(19-carboxynonadecanoylamino)butanoyl]amino]butanoyl]-[Glu14,Arg17,Pro21,Pro27,Arg34,Glu35]-h-amylin (peptide)
peptide: K([γGlu-γGlu-C20 diacid])CNTATCATQRLAEFLRHSSPNFGAIPSSTNVGRETY-NH2
modifications: disulfide 2-7; N-terminus assumed
SMILES: CC[C@H](C)[C@H](NC(=O)[C@H](C)NC(=O)CNC(=O)[C@H](Cc1ccccc1)NC(=O)[C@H](CC(N)=O)NC(=O)[C@@H]1CCCN1C(=O)[C@H](CO)NC(=O)[C@H](CO)NC(=O)[C@H](Cc1c[nH]cn1)NC(=O)[C@H](CCCNC(=N)N)NC(=O)[C@H](CC(C)C)NC(=O)[C@H](Cc1ccccc1)NC(=O)[C@H](CCC(=O)O)NC(=O)[C@H](C)NC(=O)[C@H](CC(C)C)NC(=O)[C@H](CCCNC(=N)N)NC(=O)[C@H](CCC(N)=O)NC(=O)[C@@H](NC(=O)[C@H](C)NC(=O)[C@@H]1CSSC[C@H](NC(=O)[C@@H](N)CCCCNC(=O)CC[C@H](NC(=O)CC[C@H](NC(=O)CCCCCCCCCCCCCCCCCCC(=O)O)C(=O)O)C(=O)O)C(=O)N[C@@H](CC(N)=O)C(=O)N[C@@H]([C@@H](C)O)C(=O)N[C@@H](C)C(=O)N[C@@H]([C@@H](C)O)C(=O)N1)[C@@H](C)O)C(=O)N1CCC[C@H]1C(=O)N[C@@H](CO)C(=O)N[C@@H](CO)C(=O)N[C@H](C(=O)N[C@@H](CC(N)=O)C(=O)N[C@H](C(=O)NCC(=O)N[C@@H](CCCNC(=N)N)C(=O)N[C@@H](CCC(=O)O)C(=O)N[C@H](C(=O)N[C@@H](Cc1ccc(O)cc1)C(N)=O)[C@@H](C)O)C(C)C)[C@@H](C)O

Each binder was assayed against T1, rat calcitonin receptor (assay: ratio IC50 rat calcitonin receptor / IC50 rat amylin receptor (reference)).

Binder | Ratio rCT/rAmylin binding
B1 | 137
B2 | 84.9
B3 | 48.8
B4 | 158

The binders below were run against T2, human calcitonin receptor (assay: ratio IC50 human calcitonin receptor / IC50 human amylin receptor (reference)).
Procedure, shortened: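 Competition binding by SPA with cell membranes (35 ng/μL) and SPA beads in 50 mM Hepes pH 7.4 with 1 mM CaCl2, 5 mM MgCl2, 0.1% OA and 0.02% Tween20. Incubated 120 min at 25 °C with shaking, then counted.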

Binder | Ratio hCT/hAmylin binding
B1 | 48.6
B2 | 46.5
B3 | 28
B4 | 14.7

Each binder was assayed against T1, rat calcitonin receptor (assay: SPA competition with 125I-calcitonin, membranes of BHK cells with rat calcitonin receptor (Assay VIII)).

Binder | IC50
B1 | 52.4 nM
B2 | 196 nM
B3 | 115 nM
B4 | 452 nM

What follows are binders tested against T3, rat amylin receptor (rat calcitonin …) (assay: SPA competition with 125I-rat amylin, membranes of BHK cells with rat calcitonin receptor + rat RAMP3 (Assay VI)).

Binder | IC50
B1 | 0.381 nM
B2 | 2.31 nM
B3 | 2.37 nM
B4 | 2.86 nM

— patent US20140087995A1 (published 2014)
